Results as given in the supplement of paper PMC10724198.
± gives the standard deviation of the averaged measurements.

Experiments:
Saccharomyces cerevisiae [1] = experiment: protein stability index of tFT-peptide fusion (C-terminal peptide) (PSI (0-1 scale)); higher = more stable (slower turnover); conditions: genetic background: wild type; temperature: 30 C
Saccharomyces cerevisiae [2] = experiment: as above
Procedure: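 MPS profiling in S. cerevisiae of the tFT-X12 degron library: putative degron peptides plus stable controls, 12 aa, fused to the C-terminus of a sfGFP-mCherry timer. Cells are FACS-sorted into 8 mCherry/sfGFP bins and deep-sequenced. PSI runs from 0 (unstable) to 1 (stable). Backgrounds are wild type, das1Δ and doa10Δ at 30 °C, and wild type, das1Δ, cdc34-1 and cdc53-1 at 37 °C; 2-3 technical replicates each.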

[3] = genetic background: cdc34-1, temperature: 37 C
[4] = genetic background: cdc53-1, temperature: 37 C
[5] = genetic background: das1 deletion, temperature: 30 C
[6] = genetic background: das1 deletion, temperature: 37 C
[7] = genetic background: doa10 deletion, temperature: 30 C
[8] = genetic background: wild type, temperature: 30 C
[9] = genetic background: wild type, temperature: 37 C
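Further: PSI is a weighted mean of sequencing reads over stability bins, variants kept only with over 10 reads, mCherry proximal and sfGFP distal, peptide attached via GGGS linker.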

| Sequence | protein stability index (Saccharomyces cerevisiae [1]) | protein stability index (Saccharomyces cerevisiae [2]; [3]) | protein stability index (Saccharomyces cerevisiae [2]; [4]) | protein stability index (Saccharomyces cerevisiae [2]; [5]) | protein stability index (Saccharomyces cerevisiae [2]; [6]) | protein stability index (Saccharomyces cerevisiae [2]; [7]) | protein stability index (Saccharomyces cerevisiae [2]; [8]) | protein stability index (Saccharomyces cerevisiae [2]; [9]) |
| --- | --- | --- | --- | --- | --- | --- | --- | --- |
| MAMMQTILIIIH | 0.171 ± 0.0028 | 0.0295 ± 0.01 | 0.158 ± 0.14 | 0.117 ± 0.044 | 0.186 ± 0.014 | 0.0894 ± 0.029 | 0.119 ± 0.026 | 0.173 ± 0.0081 |
| CIIAVMISIVSF | 0.0807 ± 0.031 | 0.0342 ± 0.0065 | 0.0959 ± 0.012 | 0.0327 ± 0.018 | 0.14 ± 0.035 | 0.02686 ± 0.00016 | 0.0274 ± 0.0082 | 0.0917 ± 0.023 |
| GPWVIFSHLLLT | 0.404 ± 0.023 | 0.459 ± 0.037 | 0.49 ± 0.017 | 0.405 ± 0.017 | 0.546 ± 0.013 | 0.258 ± 0.0084 | 0.249 ± 0.02 | 0.3963 ± 0.0027 |
| LLAREILVIVAV | 0.307 ± 0.0051 | 0.181 ± 0.0035 | 0.229 ± 0.017 | 0.207 ± 0.032 | 0.32 ± 0.017 | 0.166 ± 0.0048 | 0.204 ± 0.015 | 0.271 ± 0.0034 |
| HMVSWTVVRSLM | 0.316 ± 0.011 | 0.652 ± 0.065 | 0.7014 ± 0.004 | 0.603 ± 0.019 | 0.76 ± 0.026 | 0.138 ± 0.029 | 0.144 ± 0.0044 | 0.2582 ± 0.00046 |
| IFRLVRVVRSSS | 0.386 ± 0.031 | 0.669 ± 0.015 | 0.688 ± 0.037 | 0.6 ± 0.025 | 0.714 ± 0.05 | 0.19 ± 0.036 | 0.236 ± 0.03 | 0.476 ± 0.011 |
| YWRNYLVLVCKF | 0.359 ± 0.065 | 0.836 ± 0.04 | 0.794 ± 0.075 | 0.592 ± 0.023 | 0.778 ± 0.023 | 0.487 ± 0.07 | 0.481 ± 0.046 | 0.613 ± 0.024 |
| RFHFAAPPHRPS | 0.879 ± 0.01 | 0.703 ± 0.024 | 0.744 ± 0.0012 | 0.679 ± 0.027 | 0.748 ± 0.0096 | 0.694 ± 0.062 | 0.668 ± 0.034 | 0.7583 ± 0.0022 |
| RYVVVGACIQVV | 0.37 ± 0.011 | 0.421 ± 0.015 | 0.447 ± 0.0078 | 0.302 ± 0.024 | 0.48 ± 0.0021 | 0.274 ± 0.015 | 0.314 ± 0.012 | 0.4511 ± 0.003 |
| LSFFFWFIFSLC | 0.376 ± 0.019 | 0.475 ± 0.013 | 0.492 ± 0.053 | 0.429 ± 0.028 | 0.5328 ± 0.0043 | 0.344 ± 0.035 | 0.325 ± 0.0039 | 0.443 ± 0.027 |
| PIHILTHTYIGR | 0.738 ± 0.018 | 0.669 ± 0.028 | 0.7695 ± 0.00066 | 0.636 ± 0.025 | 0.719 ± 0.013 | 0.643 ± 0.014 | 0.664 ± 0.012 | 0.707 ± 0.013 |
| GRGRGGRWGRLC | 0.269 ± 0.05 | 0.642 ± 0.05 | 0.739 ± 0.016 | 0.646 ± 0.0085 | 0.75048 ± 0.00029 | 0.201 ± 0.023 | 0.215 ± 0.024 | 0.476 ± 0.023 |
| LVVFLRFFLRVL | 0.199 ± 0.0035 | 0.105 ± 0.0097 | 0.106 ± 0.002 | 0.166 ± 0.028 | 0.265 ± 0.039 | 0.175 ± 0.003 | 0.114 ± 0.033 | 0.158 ± 0.016 |
| GKVSSFVLFHIS | 0.301 ± 0.013 | 0.649 ± 0.039 | 0.761 ± 0.033 | 0.622 ± 0.031 | 0.7502 ± 0.0042 | 0.202 ± 0.024 | 0.234 ± 0.021 | 0.475 ± 0.0066 |
| SRVSEFVIPLGR | 0.719 ± 0.033 | 0.7038 ± 0.0057 | 0.7389 ± 0.0046 | 0.622 ± 0.018 | 0.7555 ± 0.0021 | 0.644 ± 0.023 | 0.6473 ± 0.0059 | 0.71 ± 0.016 |
